We go through three molecules from publication PMC6550315.

Assay [1] has as its target GTP-polymerized Taxol-stabilized microtubules (bovine tubulin) (bovine) (UniProt Q6B856). Nature of the assay: co-sedimentation.
In assay [2] the target is Kif7DM (dimeric, non GFP-tagged Kif7, aa. 1–543), held on an anti-penta-HIS biosensor (human) (UniProt Q2M1P5). Nature of the assay: BLI.
For assay [3] the target is unchanged. Nature of the assay: BLI. This is another data set of the same source. Background: Biolayer interferometry detects binding as a change in optical thickness at a sensor tip.
For assay [4] the target is unchanged. The assay can be described thus: BLI. The source holds these as a separate data set.
The target of assay [5] is GDP-tubulin microtubule segment (GTP►GDP growth) (bovine (lab-purified from bovine brain; Cytoskeleton tubulin used interchangeably)) (UniProt Q6B856). Nature of the assay: TIRF microscopy.
Assay [6] has as its target GMPCPP+GDP microtubule cap (bovine (lab-purified from bovine brain; Cytoskeleton tubulin used interchangeably)) (UniProt Q6B856). The assay can be described thus: TIRF microscopy.
Assay [7] deals with GMPCPP-stabilized microtubules (GMPCPP-bound microtubule seeds) (bovine (lab-purified from bovine brain; Cytoskeleton tubulin used interchangeably)) (UniProt Q6B856). The assay can be described thus: TIRF microscopy.
For assay [8], the target named is GDP-tubulin microtubule segment (GTP►GDP growth) (bovine (lab-purified from bovine brain; Cytoskeleton tubulin used interchangeably)) (UniProt Q6B856). Nature of the assay: TIRF microscopy. The source holds these as a separate data set.
Assay [9] deals with GMPCPP+GDP microtubule cap (bovine (lab-purified from bovine brain; Cytoskeleton tubulin used interchangeably)) (UniProt Q6B856). Nature of the assay: TIRF microscopy. This is another data set of the same source.
Assay [10] addresses GMPCPP-stabilized microtubules (GMPCPP-bound microtubule seeds) (bovine (lab-purified from bovine brain; Cytoskeleton tubulin used interchangeably)) (UniProt Q6B856). Nature of the assay: TIRF microscopy. The source holds these as a separate data set.
For assay [11], the target named is GDP-tubulin microtubule segment (GTP►GDP growth) (bovine (lab-purified from bovine brain; Cytoskeleton tubulin used interchangeably)) (UniProt Q6B856). Nature of the assay: TIRF microscopy. This is another data set of the same source.
Assay [12] has as its target GMPCPP+GDP microtubule cap (bovine (lab-purified from bovine brain; Cytoskeleton tubulin used interchangeably)) (UniProt Q6B856). The assay can be described thus: TIRF microscopy. This is another data set of the same source.
In assay [13] the target is GMPCPP-stabilized microtubules (GMPCPP-bound microtubule seeds) (bovine (lab-purified from bovine brain; Cytoskeleton tubulin used interchangeably)) (UniProt Q6B856). Nature of the assay: TIRF microscopy. The source holds these as a separate data set.
In assay [14] the target is GTP-polymerized Taxol-stabilized microtubules (bovine tubulin) (bovine) (UniProt Q6B856). The assay can be described thus: co-sedimentation. This is another data set of the same source.
The target of assay [15] is GDP-tubulin microtubule segment (GTP►GDP growth) (bovine (lab-purified from bovine brain; Cytoskeleton tubulin used interchangeably)) (UniProt Q6B856). Nature of the assay: TIRF microscopy. This is another data set of the same source.
Assay [16] addresses GMPCPP+GDP microtubule cap (bovine (lab-purified from bovine brain; Cytoskeleton tubulin used interchangeably)) (UniProt Q6B856). Nature of the assay: TIRF microscopy. This is another data set of the same source.
The target of assay [17] is GMPCPP-stabilized microtubules (GMPCPP-bound microtubule seeds) (bovine (lab-purified from bovine brain; Cytoskeleton tubulin used interchangeably)) (UniProt Q6B856). Nature of the assay: TIRF microscopy. The source holds these as a separate data set.
Assay [18] has the same target. Nature of the assay: TIRF microscopy. The source holds these as a separate data set.
Assay [19] deals with GTP-polymerized Taxol-stabilized microtubules (bovine tubulin) (bovine) (UniProt Q6B856). Nature of the assay: co-sedimentation. This is another data set of the same source.
Assay [20] has the same target. The assay can be described thus: co-sedimentation. This is another data set of the same source.
For assay [21], the target named is GTPγS microtubule segment (bovine (lab-purified from bovine brain; Cytoskeleton tubulin used interchangeably)) (UniProt Q6B856). Nature of the assay: TIRF microscopy.
For assay [22], the target named is GMPCPP-stabilized microtubules (GMPCPP-bound microtubule seeds) (bovine (lab-purified from bovine brain; Cytoskeleton tubulin used interchangeably)) (UniProt Q6B856). Nature of the assay: TIRF microscopy. This is another data set of the same source.

Read-outs that look alike come from different tables or passages of the source.

Turning to “Kif7_(DM-L8)^KHC-GFP (Kif7 1–543 with loop L8 replaced by kinesin-1 L8) (from UniProt Q2M1P5 1-543) (domain or fragment)”, the Kd (usually the free concentration of one partner at which half of the binding sites on the other are occupied at equilibrium, for simple one-to-one binding) in [1] was 850 nM. This lies in the sub-micromolar range.

“soluble tubulin (α-β-tubulin heterodimer) (from UniProt Q6B856 1-445) (complex)”: the values for the dissociation constant Kd in [2], in assay [3] and in assay [4] were 8.1 µM, 4.98 µM and 1640 nM, respectively.

B1: Kif7DM-GFP (dimeric Kif7, aa. 1–543, C-terminal GFP) (domain or fragment)
chain: MGLEAQRLPGAEEAPVRVALRVRPLLPKELLHGHQSCLQVEPGLGRVTLGRDRHFGFHVVLAEDAGQEAVYQACVQPLLEAFFEGFNATVFAYGQTGSGKTYTMGEASVASLLEDEQGIVPRAMAEAFKLIDENDLLDCLVHVSYLEVYKEEFRDLLEVGTASRDIQLREDERGNVVLCGVKEVDVEGLDEVLSLLEMGNAARHTGATHLNHLSSRSHTVFTVTLEQRGRAPSRLPRPAPGQLLVSKFHFVDLAGSERVLKTGSTGERLKESIQINSSLLALGNVISALGDPQRRGSHIPYRDSKITRILKDSLGGNAKTVMIACVSPSSSDFDETLNTLNYASRAQNIRNRATVNWRPEAERPPEETASGARGPPRHRSETRIIHRGRRAPGPATASAAAAMRLGAECARYRACTDAAYSLLRELQAEPGLPGAAARKVRDWLCAVEGERSALSSASGPDSGIESASVEDQAAQGAGGRKEDEGAQQLLTLQNQVARLEEENRDFLAALEDAMEQYKLQSDRLREQQEEMVELRLRLELVRP
As to B1, the GFP fluorescence intensity per pixel was 14.1 in assay [5]; 80.8 in assay [6]; 202 in assay [7]; 8.6 in assay [8]; 37.1 in [9]; 53 in assay [10]. In addition, the GFP fluorescence intensity per pixel in [11] was found to be 216; in assay [12], 401; in [13], 693; in [15], 208; in assay [16] it was 338; in [17], 592. Also, the GFP fluorescence intensity per pixel came out at 836 in [18], 511 in [21] and 218 in assay [22]. The equilibrium dissociation constant (Kd) is 430 nM in assay [14], 780 nM in [19], 810 nM in assay [20] and 540 nM in [1]. The molecule further displayed a GFP fluorescence intensity at curvature |κ0|, 10 nM Kif7DM-GFP in [22] of 164. Further, in assay [22], the GFP fluorescence intensity at curvature |κ0|, 50 nM Kif7DM-GFP amounted to 278. For the same molecule, in assay [22], the GFP fluorescence intensity at curvature |κ1|, 10 nM Kif7DM-GFP was 168. The GFP fluorescence intensity at curvature |κ1|, 50 nM Kif7DM-GFP in assay [22] worked out at 285. Also, the GFP fluorescence intensity at curvature |κ2|, 10 nM Kif7DM-GFP in assay [22] amounted to 168. Moreover, the GFP fluorescence intensity at curvature |κ2|, 50 nM Kif7DM-GFP in [22] amounted to 280. Besides, the GFP fluorescence intensity at curvature |κ3|, 10 nM Kif7DM-GFP in assay [22] stood at 164. In assay [22], this molecule returned a GFP fluorescence intensity at curvature |κ3|, 50 nM Kif7DM-GFP of 283.
